Source: PMC4507941 (PLoS ONE, 2015)
Entries after “also recorded” stand apart in the source; their conditions may differ. Read-outs that look alike come from different tables or passages of the source. Values belong to the substance of their own block, whether it stands above or below them. Where no end group is shown, it is not given here.

Key:
[1] = tested on: Insulin-degrading enzyme (IDE); conditions: cited from earlier work
Description: Table 1 Comparison of enzymatic characters of pitrilysin and IDE towards different substrates. | column: kcat (min^-1); KM (μM); kcat/KM (min^-1μM^-1)

pitrilysin [2] = target: T1, pitrilysin (Homo sapiens, UniProt Q5JRX3); conditions: ref [23], cited from earlier work
T1 construct: made in house; host or cells: Sf9 cells
T1 sequence (Q5JRX3 29-1037): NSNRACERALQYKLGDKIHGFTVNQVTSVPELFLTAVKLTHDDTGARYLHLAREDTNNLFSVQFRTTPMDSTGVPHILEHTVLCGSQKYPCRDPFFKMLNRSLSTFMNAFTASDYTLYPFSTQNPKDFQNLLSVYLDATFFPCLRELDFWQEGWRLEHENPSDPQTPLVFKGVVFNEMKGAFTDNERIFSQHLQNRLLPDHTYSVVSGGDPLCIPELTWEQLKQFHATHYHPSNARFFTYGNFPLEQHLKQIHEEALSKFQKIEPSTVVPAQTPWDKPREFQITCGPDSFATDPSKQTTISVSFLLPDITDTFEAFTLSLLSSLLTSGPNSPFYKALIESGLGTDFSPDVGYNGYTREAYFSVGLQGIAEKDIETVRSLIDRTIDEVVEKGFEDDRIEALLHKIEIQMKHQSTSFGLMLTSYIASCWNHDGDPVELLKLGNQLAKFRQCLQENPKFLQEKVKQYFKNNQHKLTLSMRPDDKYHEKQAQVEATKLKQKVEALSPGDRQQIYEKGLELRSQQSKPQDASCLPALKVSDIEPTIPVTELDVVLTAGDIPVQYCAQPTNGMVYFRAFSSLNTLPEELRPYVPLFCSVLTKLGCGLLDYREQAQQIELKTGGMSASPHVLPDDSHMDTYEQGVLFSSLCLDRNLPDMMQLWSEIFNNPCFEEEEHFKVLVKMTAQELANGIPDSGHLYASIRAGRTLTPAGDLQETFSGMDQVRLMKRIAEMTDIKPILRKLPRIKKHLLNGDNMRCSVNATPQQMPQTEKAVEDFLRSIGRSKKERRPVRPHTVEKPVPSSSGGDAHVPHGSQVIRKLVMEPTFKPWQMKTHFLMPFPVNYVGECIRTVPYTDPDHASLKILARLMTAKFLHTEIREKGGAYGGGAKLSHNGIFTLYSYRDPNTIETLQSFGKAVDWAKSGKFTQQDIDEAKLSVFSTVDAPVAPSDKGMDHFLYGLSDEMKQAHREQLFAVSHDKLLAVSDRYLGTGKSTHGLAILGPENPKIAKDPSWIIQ
Description: (§1) Table 1 Comparison of enzymatic characters of pitrilysin and IDE towards different substrates. | column: kcat (min^-1); KM (μM); kcat/KM (min^-1μM^-1) || Having established IAPP as a substrate of pitrilysin, the kinetic properties of the reaction were determined. The rate of hIAPP hydrolysis was determined by measuring the disappearance of the substrate by HPLC, while k cat was determined based on the linear initial rate of hIAPP hydrolysis at a saturating hIAPP concentration (20 μM) using a molecular mass of 117 kDa for pitrilysin. The KM for hIAPP was determined by using it as an alternate substrate inhibitor of the hydrolysis of the fluorogenic peptide Abz-GGYRRGQ-EDDnp. The kcat and KM values of pitrilysin with hIAPP are 13.5 ± 0.1 m ...

pitrilysin [3] = test: 40 nM pitrilysin added to hIAPP preincubated at 37°C to induce oligomer formation; conditions: human, up to 1hr
recombinant pitrilysin = test: 40 nM pitrilysin in 50 mM Tris/HCl buffer (pH 7.4) containing 200 mM NaCl; conditions: human, 37°C, up to 60'
pitrilysin [4] = test: pitrilysin (400 nM) added to hIAPP oligomers generated with rat cardiac myocytes or from HIP rat cardiac myocytes; conditions: human, 37°C, up to 1hr
pitrilysin [5] = target: T1, pitrilysin; test: Cleavage of peptide substrates by recombinant pitrilysin (HPLC substrate disappearance; KM as alternate substrate inhibitor of a fluorogenic peptide); type: biochemical; conditions: for Degradation of monomeric IAPP by pitrilysin: monomeric peptide 20 μM, HPLC
Description: Pitrilysin was produced in Sf9 cells (ATCC, Manassas, VA, USA) and purified as described.. The purity of recombinant pitrilysin is greater than 97% as judged from Coomassie blue stained SDS-PAGE gels using NIH ImageJ software (S1 Fig).
Monomeric hIAPP (20 μM) was incubated with 40 nM pitrilysin in 50 mM Tris/HCl buffer (pH 7.4) containing 200 mM NaCl at 37°C for various times and analyzed by reverse phase HPLC [22, 23]. hIAPP and its cleavage products were collected manually and identified by mass spectrometry.
as §1, with “Having” for “Table 1 Comparison of enzymatic characters of pitrilysin and IDE towards different substrates. | column: kcat (min^-1); KM (μM); kcat/KM (min^-1μM^-1) || Having”, “min^-1 and 0.38 ± 0.01 μM, respectively (Table 1).” for “m ...”

[6] = tested on: Insulin-degrading enzyme (IDE); test: Cleavage of peptide substrates by insulin-degrading enzyme (IDE), determined as for pitrilysin; type: biochemical; conditions: mean ± SEM
Description: as §1, with “Having” for “Table 1 Comparison of enzymatic characters of pitrilysin and IDE towards different substrates. | column: kcat (min^-1); KM (μM); kcat/KM (min^-1μM^-1) || Having”, “min^-1 and 0.38 ± 0.01 μM, respectively (Table 1).” for “m ...”
We therefore compared the enzymatic properties of these two enzymes in terms of hIAPP degradation. The kcat and KM values for IDE with hIAPP were determined as above yielding values of 294 ± 0.4 min^-1 and 3.11 ± 0.20 μM, respectively. […] (Table 1). Thus relative to IDE, pitrilysin is a more specific IAPP degrading enzyme.

pitrilysin [7] = target: T1, pitrilysin; test: In vitro cleavage of oligomeric hIAPP by pitrilysin (SDS-PAGE, Western blot); type: biochemical; conditions: hIAPP oligomers (12, 28, 36, 40 kDa and large oligomers), 40 or 400 nM pitrilysin, 37°C, 1 hr
Description: hIAPP was incubated at 37°C for 1 hr. with gentle shaking to induce hIAPP oligomerization. To produce low molecular weight oligomers, hIAPP oligomerization was initiated in saline solution at 37°C using 50 μM recombinant hIAPP and then incubated with myocytes for 2 hours at room temperature. Similarly cardiac myocytes from hIAPP expressing rats (HIP rats) contain amylin oligomers and thus both were used. Pitrilysin was added to oligomers and incubated for 1 hour at 37°C. The reaction was then subjected to SDS-PAGE and Western blotting with A11 antisera for large oligomer or with mouse anti-hIAPP for detection of monomers and small oligomers. Adult cardiac myocytes were isolated from wild-type Sprague-Dawley rats and from HIP rats as described.
Oligomers of hIAPP were generated from hIAPP incubated with rat cardiac myocytes and then incubated with pitrilysin (400 nM) at 37°C for 1 hr. Reactions were analyzed by Western blot analysis using mouse monoclonal anti-human amylin antibody E-5. b. […] Reactions were analyzed by Western blots using rabbit anti-IAPP that recognizes monomeric IAPP or rabbit anti-oligomer antibody A11. rIAPP (20 μM) was treated at the same condition as a negative control.

[8] = 20 μM hIAPP, 40 nM pitrilysin, 37°C, HPLC peaks identified by mass spectrometry
[9] = 40 nM pitrilysin, 50 mM Tris/HCl pH 7.4, 200 mM NaCl, 37°C

Substance: Insulin
Km ([1]; ref [44]): 0.13 ± 0.02 µM
kcat ([1]; ref [44]): 0.00933 ± 0.00017 s⁻¹
kcat/KM ([1]; ref [44]): 4.3 min^-1μM^-1
Km (pitrilysin [2]): 54.5 ± 5.5 µM
kcat (pitrilysin [2]): 0.0033 ± 0 s⁻¹
kcat/KM (pitrilysin [2]): 0.0037 min^-1μM^-1

Substance: KCNTATCATQRLANFLVHSSNNFGAILSSTNVGSNTY-NH2
not cleaved (pitrilysin [3]): not able to degrade large hIAPP oligomers (1hr)
cleaved bond (recombinant pitrilysin): Phe15-Leu16, first_seen; also recorded: Gly24-Ala25, major; also recorded: Ala25-Ile26, major; also recorded: Arg11-Leu12, minor; also recorded: Leu12-Ala13, minor; also recorded: Ala13-Asn14, minor; also recorded: Asn14-Phe15, minor
not cleaved (pitrilysin [4]): inability of pitrilysin to reduce the amount of hIAPP oligomers of 12 kDa, 28 kDa, 36 kDa, or 40 kDa (1 hr)

Substance: amyloid β peptide 1–40 [Aβ 40]
Km ([1]; ref [43]): 0.87 ± 0.1 µM
kcat ([1]; ref [43]): 3.68 ± 0.183 s⁻¹
kcat/KM ([1]; ref [43]): 250 min^-1μM^-1
kcat/KM (pitrilysin [2]; listed as Aβ1–40): 1.94 min^-1μM^-1
Km (pitrilysin [2]): 1.7 ± 0.1 µM
kcat (pitrilysin [2]): 0.055 ± 0.0017 s⁻¹

Substance: islet amyloid polypeptide (KCNTATCATQRLANFLVHSSNNFGAILSSTNVGSNTY; not fully specified (C-terminus); cysteine pairing not given here) [hIAPP, Human islet amyloid polypeptide (IAPP, amylin), from Anaspec; substrate of pitrilysin and IDE]
Initial cleavage sites on hIAPP by pitrilysin (pitrilysin [5]; [8]): Phe^15-Leu^16, Gly^24-Ala^25 and Ala^25-Ile^26
Secondary (subsequent) cleavage sites on hIAPP by pitrilysin (pitrilysin [5]; [8]): Arg^11-Leu^12, Leu^12-Ala^13, Ala^13-Asn^14 and Asn^14-Phe^15
Degradation of monomeric IAPP by pitrilysin (pitrilysin [5]; [9]): hIAPP degradation is indeed catalyzed by pitrilysin
Km (pitrilysin [5]; pitrilysin, hIAPP as alternate substrate inhibitor of hydrolysis of fluorogenic peptide Abz-GGYRRGQ-EDDnp, mean ± SEM): 0.38 ± 0.01 µM
kcat (pitrilysin [5]; pitrilysin, linear initial rate of hIAPP hydrolysis at saturating 20 μM, substrate disappearance by HPLC, 50 mM Tris/HCl pH 7.4, 200 mM NaCl, 37°C, molecular mass 117 kDa, mean ± SEM): 0.225 ± 0.0017 s⁻¹
kcat ([6]; determined as for pitrilysin (HPLC, saturating hIAPP)): 4.9 ± 0.0067 s⁻¹
Km ([6]; determined as for pitrilysin (alternate substrate inhibitor)): 3.11 ± 0.2 µM
Degradation of oligomeric hIAPP by pitrilysin (pitrilysin [7]): not able to degrade; also recorded: does not degrade

Degradation of monomeric IAPP by pitrilysin (pitrilysin [5]; [9]): degrades monomeric rat IAPP
Substance: rIAPP: rodent (rat) islet amyloid polypeptide, does not form oligomers
